Results published in the nanobody polyreactivity screen of Harvey et al. (2022).

test: yeast display, Sf9 membrane polyspecificity reagent, FACS + sequencing; frameworks hold sequencing errors
Outline: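 Nanobodies came from a synthetic yeast display library in Saccharomyces cerevisiae BJ5465, induced with galactose for 36–48 hours and stained for 1 hour at 4 °C with 10% biotinylated, detergent-solubilized Sf9 membrane reagent. Cells were enriched on streptavidin microbeads and then FACS-sorted, with low and high (top ~1%) gates set on anti-HA fluorescence for expression and streptavidin fluorescence for reagent binding. Each polyreactivity label reflects the gate a clone came from. Genes were amplified by colony PCR, sequenced by MiSeq 2 × 250 and filtered by CDR length.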

Row | Sequence | polyreactivity (PSR sort gate)
1 | QVQHVESGGGLVQAGGSLRLSCAASGITFGDNDMGWYRQAPGKERELVASISSGGSTTYADSVKGRFTISRDNAKNTVYLQMNSLKPEDTAVYYCNADYGSSVEYNYWGQGTKVTVSS | low polyreactivity
2 | QVQHVESGGGLVQAGGSLRLSCAASGLIFSWYAKGWYRQAPGKERELDASITIGGNTNYAYSVKGRFTISRDNAKNTVYLQMNSLKPEDTAVYYCDAQTFWYGYGGGDYWGQGTQVTVSS | low polyreactivity
3 | QVQHVESGGGLVQAGGSLRLSCAASGLIFTKNAMGWCRQARGKEWELVAAISRGGGTPYYADSVKGRFTISRDHAKNTVYLQMNSLKPEDTAVYYCAAESYLQYPGAGDSWGQGTQVTVSS | high polyreactivity
4 | QVQHVESGGGLVQAGGSLRLSCAASGLTFAGYTMGWYRQAPGKERELVAAITRGGGRTYYADSVKGRFTISRDNAKNTVYLQMNSLKPEDTAVYYCATVSQYRGYYWGQGTQVTVSS | high polyreactivity
5 | QVQHVESGGGLVQAGGSLRLSCAASGRIFDLNAMGWYRQATGKERELVAAISYSGGRTFSADSVKRRFTISRDNAKNTVYLQMNSLKPEDTAVYYCAAVAYLNWTPHYYWGQGTQVTVSS | low polyreactivity
6 | QVQHVESGGGLVQAGGSLRLSCAASGRIFDLYAMGWYRQAPGKERELVAAITSGSTYYADSVKGRFTISRDNAKNTVYLQMNSLKPEDTAVYYCAADLSYWRGGHSRNYWGQGTQVTVSS | low polyreactivity
7 | QVQHVESGGGLVQAGGSLRLSCAASGRIFDSYAMGWYRQAPGKERELVATISWDSASTYYADTVKGRFTISRDNAKNTVYLQMNCLNPEDTAVYYCAAGGSSSWAFNYWGQGTQVTVSS | low polyreactivity
8 | QVQHVESGGGLVQAGGSLRLSCAASGRIFGRNNMGWYRQAPGKERELVAAISSSGGSTRYADSVKGRFTISRDNAKNTVYLQMNSLKPEDTGVYYCAARRAYYYEGGYDYWGQGTQVTVSS | high polyreactivity
9 | QVQHVESGGGLVQAGGSLRLSCAASGRIFGSNAMGWYRQPPGKDRELVAAITWSGGSTYYADSVKGRFTISRDNAKNTVYLQMNSLKPEDTAVYDCAAPASRTKGPFPGYDYWGQGTQVTVSS | high polyreactivity
10 | QVQHVESGGGLVQAGGSLRLSCAASGRIFGSYAMVGYIQAPGKETELDAAIRWSGGNTYYADSVKGRFTITRDNAKNTVYFQMNSLKPEDTAVYYCNARTARSYSKTSYRFSSYNYWGQGTQVTVSS | high polyreactivity
11 | QVQHVESGGGLVQAGGSLRLSCAASGRIFRFNAMGWYRKAPGKERELVAAISWRSSNTYYADSVKGRFTISRDNAKNSVYLQMNSLKPEDTAVYYCAASTASSKYRYEYWGQGTQVTVSS | high polyreactivity
12 | QVQHVESGGGLVQAGGSLRLSCAASGRIFSANAMGWYRQAPGKERELVAAISGSGGSTFYADSVKGRFTISRDNAKNTVYLQMNSLKPEDTAVYYCAARRYRSGYYSFYYWGQGTQVTVSS | high polyreactivity
13 | QVQHVESGGGLVQAGGSLRLSCAASGRIFSYYAMGWYRQAPGKERELVAVISRRGDNTYYADSVKGRFTISRDNAKKTVYLQMNSLKPEDTAVYYCAARFGYLTFYSSGYYWGQGTQVTVSS | high polyreactivity
14 | QVQHVESGGGLVQAGGSLRLSCAASGRIFYGNAMGWYRQAPGKERELVAGITRSSGTSTDYADSVKGRFTISRDNAKNSVYLQMNSMKPEDCAVYYCAAPPDSYYFYKVPVVPYDYWGQGTQVTVSS | low polyreactivity
15 | QVQHVESGGGLVQAGGSLRLSCAASGRTFAHYAMGWYRQAPGKERELVAAISWGGTRTYYADSVKGRFTISRDNAKNTVYLQMNSLKPEDTAVYYCAADYGYQDDYWGQGTQVTVSS | low polyreactivity
16 | QVQHVESGGGLVQAGGSLRLSCAASGRTFGLNAMGWYRQAPGKERELVAAISGSGGRTYYADSVKGRFTISRDNAKNTVYLQMNSLKPEDTAVYYCARVPSGQLEYDYWGQGTQVTVSS | high polyreactivity

Row | Sequence | polyreactivity (PSR sort gate)
17 | QVQHVESGGGLVQAGGSLRLSCAASGRTFGWYTMGWYRQAPGKEREFVAAISSSDTSTYYADSVKGRFTISRDNAKNTVYLQMNSLKPEDTAVYYCAADPPSWQWFVGYSYDYWGQGTQVTVSS | low polyreactivity
18 | QVQHVESGGGLVQAGGSLRLSCAASGRTFTFNAMGWYRPAPGKERELVARIDWRGITYADSVKGRFTISRDNAKNTVYLQMNSLKPEDTAVYDCAAVWLHISYYGKYDYWGQGTQVTVSS | low polyreactivity
19 | QVQHVESGGGLVQAGGSLRLSCAASGRTFTPNAMGWYRPPPGKVREMVAAIDWRGGRTYYADSVKGRFTISRDNAKNTVYLQKNSLKPEDTAVYYCAARVDGYQYKSAGYSYGVFYWGQGTQVTVSS | low polyreactivity
20 | QVQHVESGGGLVQAGGSLRLSCAASGRTLYNYAMGWYRQAPGKEWELVAAISGSGGSTYYADSVKGRFTISRDNAKNTVYLQMNSLKPEDTEVYFCAKYRGIYPDVRGTYYWGQGTQVTVSS | high polyreactivity
21 | QVQHVESGGGLVQAGGSLRLSCAASGRTYVNYVMGWYRQAPGKEREFVAAISRNGGSTYYADSVKGRFSISRDNAKYTFYLQMNSLKPEDTAVYYCAARPRRRYYGSDSWGQGTQVTVSS | high polyreactivity
22 | QVQHVESGGGLVQAGGSLRLSCAASGSIFDRNAMGRYRQAPGKERELVAAISGGDSTYYADSVKGRFTISRDNAKNTVYLQMNSLKPEDTAVYYCNVDFKTEYDYWGQGTQVTVSS | low polyreactivity
23 | QVQHVESGGGLVQAGGSLRLSCAASGSIFDVYTMGWYRQAPGKQRELVAAINTGGGSTYYADSVKGRFTISRDNAKNTVYLQMISLKPEDTAVYYCAASVYHYGPLYYWGQGTQVTVSS | low polyreactivity
24 | QVQHVESGGGLVQAGGSLRLSCAASGSIFIPYAMGWSRQPPGKERELVAAISWSGSSTYYADSVKGRFTISRDNAKNTVYLQMISLKPEDTAVYYCAAYNAYRRGYDYWGQGTQVTVSS | high polyreactivity
25 | QVQHVESGGGLVQAGGSLRLSCAASGSIFNTYTMGWYRQAPGKERELVAAISSGGSTYYADSVKGRFSISRDNAKNTVYLHMNSLKPEDTAVYYCAAYGHSFQIYDYWGQGTQVTVSS | low polyreactivity
26 | QVQHVESGGGLVQAGGSLRLSCAASGSIFPHYAMGWYRQAPGKERELVAAISYSGGRTYYADSVKGRFTISRDNAKNTVYLQMNSLKPEDTAVYYCAKPERVLYHGDYWGQGTQVTVSS | low polyreactivity
27 | QVQHVESGGGLVQAGGSLRLSCAASGSIFRFYAMGWYRQAPGKERELVAAISWSGGSTYYADSVKGRFTISRDNAKNTVYLQMNSLKPEDTAVYYCNTRYYGGFDSWGQGTQVTVSS | high polyreactivity
28 | QVQHVESGGGLVQAGGSLRLSCAASGSIFRRNAMGRYRQAPGKVRELVAGISGGGSTYYADSVKGRFTISRDNAKNTVYLQMNSMKPEDTAVYYCATDKHYRSAGFDYWGQGTQVTVSS | low polyreactivity
29 | QVQHVESGGGLVQAGGSLRLSCAASGSIFRYYAMGWYRQAPGKERELVAASTSGGSTSYADSVKGRFTISRDNAKNTVYLQMNSLKPEDTAVYYCAKRSRHNKYYYWGQGTQVTVSS | high polyreactivity
30 | QVQHVESGGGLVQAGGSLRLSCAASGSIFYTYPMGWNRQAPGKERELVAAISFSDGDTYYADSVKGRFTISRDNAKNTVYLQMIRLKPVDTAVYYCNDYVYLPNYPYDYWGQGTHVTVSS | low polyreactivity
31 | QVQHVESGGGLVQAGGSLRLSCAASGSIIYRNAMGWSRQPPGKERELVAAISWSAARTYYADSVKGRFTISRDNAKNTVYLQMNSQKPEDTAVYYCNKAARFTSHQGYDSWGQGTQVTVSS | high polyreactivity
32 | QVQHVESGGGLVQAGGSLRLSCAASGSILFKYAMGWSRQAPGQESELVATITSGGSTYYADSVKGRVTISRDNAKNTVYLQMNSLKPEDTAVYYCATGQYYYDGIVAFFELDYWGQGTQVTVSS | low polyreactivity
